For 10 molecules, Binding activity (absorbance results are on record in patent US20160200799A1.

Common to all, as to test: ELISA on coated viral particles
Assay [1] deals with Influenza virus A/Brisbane/59/2007 (H1N1) (Influenza A virus A/Brisbane/59/2007 (H1N1)).
Assay [2] deals with Influenza virus A/California/7/2009pdm (H1N1pdm) (Influenza A virus A/California/7/2009pdm (H1N1pdm)).
In assay [3] the target is Influenza virus A/New Caledonia/20/1999 (H1N1) (Influenza A virus A/New Caledonia/20/1999 (H1N1)).
Assay [4] addresses Influenza virus A/Panama/2007/1999 (H3N2) (Influenza A virus A/Panama/2007/1999 (H3N2)).

B1: Group 39 representative clone F082-237, Fab-cp3-type antibody (Fab, V domains shown)
VH: QVQLVQSGAEVKKPGSSVKVSCKASGGIFNKYGISWVRQAPGQGLEWMGGILAIFGTTNYAQKFQGRVTISADESSTTVYMELSSLTSEDTAVYYCARGNTYYSSYFDQWGQGTLVTVSS
VL: QSVLTQPPSVSVAPGQTATITCGGDKIGTGPVHWYQQMPGRAPVLLIYASTHRPSRIPERFSGSKSDNTATLSISGVGVGDEADYYCQMWDSSSVHPIVFGGGTKLTVLS
For B1, the Binding activity (absorbance at 492 nm) was 1.95 in assay [1], 2.62 in assay [2], 1.94 in assay [3] and 0.13 in assay [4].

B2: Group 54 representative clone F083-354, Fab-cp3-type antibody (Fab, V domains shown)
VH: QVQLVQSGSEVKKPGSSVKVSCKASGGIFNSYGISWVRQAPGQGLEWMGGILAIFGTTNYAQKFQGRVTITADDSSKTVYMELSSLTSEDTAVYYCARGSTYYSSYFDQWGQGTLVTVSS
VL: DIQMTQSPSSLSASVGDRVTITCRASQGIRNSLAWYQQKPGQVPKLLIYSATTLRSGVPYRFSGSGSGTDFTLTISGLQPEDVGTYFCHRYDSAPLTFGGGTRVALK
Turning to B2, the Binding activity (absorbance at 492 nm) stood at 3.01 in assay [1], 2.54 in assay [2], 3.05 in assay [3] and 0.16 in assay [4].

B3: Group 36 representative clone F082-243, Fab-cp3-type antibody (Fab, V domains shown)
VH: QVQLQQSGAEVKKPGSSVKVSCKASGGIFRKNAISWVRQAPGQGLEWMGGIIAIFGTANYAQKFQGRVTITADDSTNTVYMELTSLRYEDTAVYYCARGPNYYENYFDFWGQGTLVTVSS
VL: EIVLTQSPSSLSASLRDTVTITCRTSQAITNYLAWYQQRPGKAPKLLIYAASVLQSGVPSRFSGSGSGTDFTLTISSLQPEDFATYYCQKYDSAPYTFGQGTKLEIK
In the case of B3, the Binding activity (absorbance at 492 nm) in assay [1] turned out to be 1.05; in assay [2], 0.8; in assay [3], 0.96; in assay [4] it was 0.13.

B4: Group 48 representative clone F083-389, Fab-cp3-type antibody (Fab, V domains shown)
VH: QVQLVQSGAEVKKPGSSVKVSCKASGDIFNKFAITWVRQAPGQGLEWMGGITALFATTSYAQKFQDRVTINWDESTTTAFMELSSLRFEDTAVYYCARGPNYYETYLDNWGQGTLVTVSS
VL: EIVLTQSPTILSASVGDRVTITCRASQSISKWLAWYQQKPGKVPKLLIYMASTLESGVPSRFSGSGSGSEFTLTISSLQPGDFATYYCQQYNSYPRTFGQGTKVEINV
For B4, the Binding activity (absorbance at 492 nm) in assay [1] came out at 2.83; in assay [2], 2.49; in assay [3], 2.72; in assay [4] it was 0.14.

B5: Group 2 representative clone F082-220, Fab-cp3-type antibody (Fab, V domains shown)
VH: QVQLVQSGAEVKKPGSSVKVSCKASGGIFRSNAVSWVRQAPGQGLEWMGGIIAIFGTPKYAQKFQGRVTITADESTSTVYMELSGLRYEDTAVYYCARGPNYYESYFDYWGQGTLVTVSS
VL: DIVMTQSPPSLSASVGDRVTITCRASQGISNYLAWYQQKPGKAPKLLIFGASTLHSGVSSRFSGSGSGPDFTLTISSLQPEDAATYYCQKYHSAPLTFGGGTKVEMK
Turning to B5, the Binding activity (absorbance at 492 nm) turned out to be 3.15 in assay [1], 2.72 in assay [2], 3.37 in assay [3] and 0.16 in assay [4].

B6: Group 47 representative clone F083-308, Fab-cp3-type antibody (Fab, V domains shown)
VH: QVQLVQSGAEVKKPGSSVKVSCKASGGIFRSHAISWVRQAPGQGLEWMGGIIAIFGTTHYAQQFQGRVTITADESTSTVYMELSTLRSEDTAVYYCARGPNYFESYFDNWGQGTLVTVSS
VL: EIVLTQSPATLSLSPGERATLSCRASQTISSYLAWYQQKPGQAPRLLIYGASNRATGIPARFSGSGSGTDFTLTINSLEPEDFAVYYCQQRSSWPPITFGQGTRLEIK
With B6, the Binding activity (absorbance at 492 nm) in assay [1] was found to be 1.82; in assay [2] it was 1.21; in assay [3], 1.79; in assay [4] it was 0.16.

B7: Group 3 representative clone F081-281, Fab-cp3-type antibody (Fab, V domains shown)
VH: QVQLVQSGSEVKKPGSSVKVSCSFKASGGIISKYAITWVRQAPGQGLEWMGGIIAIFGSTNYAQKFQGRLTITSDESTSTAYMELSSLTSEDTAVYYCGRGPHYYESHLDYWGQGTLVTVSS
VL: EIVLTQSPGTLSLSPGERATLSCRASQGMSSSFLAWYQQKPGQPPRLLISGASTRATGIPDRFSGSGSGTDFTLTINRLEPEDFAVYYCQQYGSSPRTFGQGTKVEIK
Turning to B7, the Binding activity (absorbance at 492 nm) was 2.98 in assay [1], 2.87 in assay [2], 2.86 in assay [3] and 0.18 in assay [4].

B8: Group 37 representative clone F083-311, Fab-cp3-type antibody (Fab, V domains shown)
VH: QVQLVQSGSEVKKPGSSVKVSCKASGGIFRTNAISYVRQAPGQGLEWMGGITAIFGTPNYAQKFQGRVTIIADESTSTVYMELGSLTSEDTAVYYCATSGTYYVSYFDSWGQGTLVTVSS
VL: DIVMTQSPGTLTLSPGERATLSCRASQSLYSSHLAWYQQKPGQPPRLLIYGASTRAPGTPDRFSGSGSGTDFTLTITALDPEDSAVYYCQQYGSSPITFGQGTRLEIK
Regarding B8, the Binding activity (absorbance at 492 nm) came to 2.64 in assay [1], 1.82 in assay [2], 2.59 in assay [3] and 0.15 in assay [4].

B9: Group 52 representative clone F083-328, Fab-cp3-type antibody (Fab, V domains shown)
VH: QVQLVQSGAEVKKPGSSVKLSCKASGGTLRSYALSWVRQAPGEGLEWMGGISAIFNTATYAQNVQGRVTITADESTNTFYLEVSSLRSDDTAVYYCATSGTYYVSFFDYWGQGTLVTVSS
VL: DIVLTQSPSTLSASVGDRVTLTCRASQSIGSLMAWYQQQPGKPPKLLIYRASNLETGVPSRFTGSGSGTEFALTISSLQPDDVGTYYCQHFKTFSRTFGQGTKVEIK
With B9, the Binding activity (absorbance at 492 nm) in assay [1] was determined as 2.43; in assay [2] it was 2.02; in assay [3], 2.66; in assay [4], 0.22.

B10: Group 35 representative clone F082-117, Fab-cp3-type antibody (Fab, V domains shown)
VH: QVQLVQSGSEVKKPGSSVKVSCKSSGGILRRSAISWVRQAPGQGLEWMGGILAIFGTTKYAQKFQGRITITADESTNTVHMELSSLRPDDTAVYYCAGGPHYYVSYFDSWGQGTLVTVSS
VL: DIQMTQSPATLSLSPGERATLSCRASQSVRSYLAWYQQKPGQAPRLLIYDASNRATGIPARFSGSGSGTEFTLTISRLEPEDFAVYYCQQRSNWLFTFGPGTKVDFK
As for B10, the Binding activity (absorbance at 492 nm) in assay [1] was determined as 3.26; in assay [2], 3.11; in assay [3] it was 3.35; in assay [4], 0.15.
